Laboratory results as given in the Human Domainome abundance scans (Beltran et al. 2025).
± gives the uncertainty stated by the source.

B1: Nucleolar transcription factor 1, residues 408 to 469; numbered along this chain, P17480 (parent)
chain: KRPVSAMFIFSEEKRRQLQEERPELSESELTRLLARMWNDLSEKKKAKYKAREAALKAQSER

Variants of: B1
Test: abundance fitness (aPCA) (normalised: wild type 0, dead -1); higher = more abundant; growth selection in yeast, the domain comes from the species named
Details: Homo sapiens

Variant	abundance fitness
K48M	-0.022 ± 0.056
K48S	-0.048 ± 0.052
K48Q	-0.091 ± 0.18
R16N	-0.154 ± 0.16
R16W	-0.106 ± 0.054
R16Q	-0.041 ± 0.066
R16L	-0.058 ± 0.056
Y49Q	-0.756 ± 0.17
Y49K	-0.861 ± 0.1
Y49D	-0.626 ± 0.075
Y49F	-0.221 ± 0.078
Y49V	-0.82 ± 0.052
Y49E	-0.643 ± 0.062
Y49R	-0.913 ± 0.056
R52L	-0.114 ± 0.045
R52C	-0.111 ± 0.078
R52I	-0.134 ± 0.11
R52P	-0.254 ± 0.064
R52Q	0.002 ± 0.06
R52E	-0.026 ± 0.073
R52M	-0.092 ± 0.061
S28K	-0.037 ± 0.09
S28C	-0.043 ± 0.082
S28V	-0.089 ± 0.057

Variant	abundance fitness
S28R	-0.113 ± 0.065
S28Y	-0.085 ± 0.057
S28D	0.055 ± 0.074
A54C	-0.051 ± 0.1
A54R	-0.031 ± 0.037
A54Q	-0.102 ± 0.068
A54S	-0.071 ± 0.059
A54Y	-0.075 ± 0.075
A54V	-0.003 ± 0.052
A54K	-0.014 ± 0.054
A51E	-0.033 ± 0.082
A51H	-0.142 ± 0.12
A51W	-0.219 ± 0.082
A51G	-0.101 ± 0.047
E12N	-0.048 ± 0.1
E12W	-0.253 ± 0.059
E12P	-0.738 ± 0.04
L34F	-0.296 ± 0.12
L34W	-1.01 ± 0.062
L34N	-0.931 ± 0.12
L34A	-0.192 ± 0.053
L34Q	-0.525 ± 0.085
L34C	-0.049 ± 0.11
L34I	-0.074 ± 0.091

Variant	abundance fitness
L34K	-1.27 ± 0.21
L34S	-0.271 ± 0.064
E53Y	-0.122 ± 0.091
E53S	-0.13 ± 0.056
E53Q	-0.146 ± 0.074
E53N	-0.37 ± 0.36
E53F	-0.186 ± 0.068
E53K	-0.366 ± 0.083
R15S	-0.121 ± 0.05
R15P	-1.28 ± 0.15
R15K	0.035 ± 0.078
R15W	-0.295 ± 0.096
R15D	-1.2 ± 0.25
R15M	-0.19 ± 0.11
R15G	-0.153 ± 0.043
R15I	-0.209 ± 0.094
R15H	-0.411 ± 0.2
Q17E	0.002 ± 0.055
Q17M	-0.028 ± 0.057
Q17H	-0.091 ± 0.12
Q17A	-0.081 ± 0.068
Q17R	-0.114 ± 0.051
Q17W	-0.106 ± 0.046
A58W	-0.097 ± 0.067

Variant	abundance fitness
A58S	-0.051 ± 0.048
A58E	-0.069 ± 0.068
A58G	0.001 ± 0.056
K1C	-0.367 ± 0.18
K1A	-0.287 ± 0.14
K1S	-0.276 ± 0.14
K1I	0 ± 0.25
A6T	-0.44 ± 0.088
A6P	-0.306 ± 0.15
A6C	-0.225 ± 0.11
S11G	-0.028 ± 0.043
S11H	-0.146 ± 0.18
S11Y	0.011 ± 0.073
M7L	-0.086 ± 0.055
M7T	-0.22 ± 0.068
M7W	-0.178 ± 0.046
M7F	-0.015 ± 0.2
M7A	-0.038 ± 0.067
M7S	-0.056 ± 0.049
M7G	-0.131 ± 0.045
M7R	-0.043 ± 0.047
S26R	-0.157 ± 0.059
S26C	-0.263 ± 0.18
S26H	-0.182 ± 0.1

Variant	abundance fitness
S26Q	-0.104 ± 0.085
S26P	-0.16 ± 0.09
E21K	-0.065 ± 0.075
E21D	-0.126 ± 0.12
E21L	-0.097 ± 0.041
E21A	-0.099 ± 0.072
E21P	-1.1 ± 0.15
L25Y	-0.173 ± 0.16
L25T	-0.423 ± 0.082
L25Q	-0.477 ± 0.08
L25G	-0.946 ± 0.067
L56I	0.004 ± 0.063
L56T	0.01 ± 0.089
L56R	-0.111 ± 0.05
L56F	-0.076 ± 0.081
L56G	-0.072 ± 0.042
L56D	-0.078 ± 0.074
L56V	-0.036 ± 0.051
K50V	-0.038 ± 0.064
K50H	-0.036 ± 0.13
K50F	0.002 ± 0.11
K50C	-0.049 ± 0.099
K50W	-0.134 ± 0.059
K50D	-0.189 ± 0.1

Variant	abundance fitness
K50A	-0.138 ± 0.076
K50M	-0.096 ± 0.083
K44W	-0.09 ± 0.053
K44L	-0.108 ± 0.043
K44H	-0.121 ± 0.12
K44I	-0.159 ± 0.081
E61R	-0.236 ± 0.13
E61F	-0.129 ± 0.12
E61M	0.023 ± 0.11
E61W	-0.135 ± 0.071
W38Y	-0.151 ± 0.17
W38S	-0.732 ± 0.054
W38N	-1.07 ± 0.22
W38M	-1.06 ± 0.08
W38D	-0.456 ± 0.099
W38H	-0.803 ± 0.11
W38L	-0.985 ± 0.07
M37Y	-0.12 ± 0.055
M37H	-0.267 ± 0.12
M37D	-0.422 ± 0.14
M37S	-0.225 ± 0.058
M37G	-0.32 ± 0.036
M37K	-0.296 ± 0.087
M37A	-0.095 ± 0.06

Variant	abundance fitness
R32T	-0.007 ± 0.092
R32S	0.022 ± 0.066
N39R	-0.058 ± 0.037
N39V	-0.166 ± 0.054
N39S	-0.054 ± 0.046
N39Y	-0.075 ± 0.082
N39I	-0.147 ± 0.12
N39C	-0.138 ± 0.11
S42Y	-0.619 ± 0.099
S42D	0.002 ± 0.1
S42R	-0.698 ± 0.062
S42M	-0.654 ± 0.069
P3R	-0.095 ± 0.033
P3T	0.021 ± 0.095
P3H	-0.061 ± 0.088
P3C	-0.264 ± 0.1
P3S	-0.014 ± 0.052
P3W	-0.297 ± 0.066
E13C	-0.175 ± 0.067
E13I	-0.177 ± 0.16
E13H	-0.22 ± 0.19
E13L	-0.277 ± 0.063
E13M	-0.124 ± 0.071
